Experimental data as given in PMC10237651, “Arabidopsis FIN219/JAR1 interacts with phytochrome A under far-red light and jasmonates in regulating hypocotyl elongation via a functional demand manner” (PLOS Genetics, 2023).

Target: T1, CBP-PHYA (recombinant full-length PHYA) (Arabidopsis, UniProt P14712 1-1122)
T1 construct: phytochrome A (PHYA), Arabidopsis, At1g09570, full length; coding region cloned into pCAL-n in frame with an upstream CBP tag; Made in E. coli; no chromophore is mentioned; also called CBP-PHYA-F; source: E. coli (BL21), purified (Calmodulin Resin)
T1 sequence (looked up): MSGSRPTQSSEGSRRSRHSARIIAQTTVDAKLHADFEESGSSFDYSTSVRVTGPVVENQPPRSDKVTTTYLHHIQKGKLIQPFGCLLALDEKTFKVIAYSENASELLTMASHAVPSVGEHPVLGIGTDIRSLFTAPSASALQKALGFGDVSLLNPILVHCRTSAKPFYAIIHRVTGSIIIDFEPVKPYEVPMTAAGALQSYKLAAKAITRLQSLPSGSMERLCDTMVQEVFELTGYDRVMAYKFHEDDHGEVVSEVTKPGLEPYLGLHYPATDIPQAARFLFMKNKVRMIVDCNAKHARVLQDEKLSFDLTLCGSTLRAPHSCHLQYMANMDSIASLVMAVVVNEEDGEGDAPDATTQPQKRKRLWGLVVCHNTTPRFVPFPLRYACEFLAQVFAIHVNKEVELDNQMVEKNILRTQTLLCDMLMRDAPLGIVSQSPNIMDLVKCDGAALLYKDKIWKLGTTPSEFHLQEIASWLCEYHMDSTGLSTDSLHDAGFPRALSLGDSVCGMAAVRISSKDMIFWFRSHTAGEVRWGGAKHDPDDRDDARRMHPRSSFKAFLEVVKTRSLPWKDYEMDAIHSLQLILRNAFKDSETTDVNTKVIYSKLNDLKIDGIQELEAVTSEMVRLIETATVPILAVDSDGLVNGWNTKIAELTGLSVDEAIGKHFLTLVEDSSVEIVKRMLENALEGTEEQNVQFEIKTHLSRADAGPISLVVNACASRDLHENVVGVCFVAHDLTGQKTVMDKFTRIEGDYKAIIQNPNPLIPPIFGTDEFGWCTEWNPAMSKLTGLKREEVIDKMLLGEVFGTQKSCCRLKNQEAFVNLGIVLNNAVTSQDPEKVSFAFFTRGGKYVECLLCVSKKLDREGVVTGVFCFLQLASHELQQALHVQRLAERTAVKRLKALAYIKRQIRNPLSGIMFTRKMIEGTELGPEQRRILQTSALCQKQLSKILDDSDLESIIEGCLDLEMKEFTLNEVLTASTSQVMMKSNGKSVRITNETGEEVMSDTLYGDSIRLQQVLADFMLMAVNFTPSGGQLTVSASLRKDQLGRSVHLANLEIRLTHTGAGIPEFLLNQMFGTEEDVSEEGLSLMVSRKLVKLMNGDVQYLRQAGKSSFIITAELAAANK
Test: pull-down; 1 μg GST-tagged FIN219 protein on 10 μl GST beads overnight at 4°C in 1 ml 1X PBS, then 1 μg CBP-PHYA for 2 h at 4°C; eight washes with 1X PBS; blots with anti-GST and anti-phyA
Details: both partners purified

B1: GST-FIN219-FL (enzyme, Arabidopsis, UniProt Q9SKE2 1-575, looked up)
chain: MLEKVETFDMNRVIDEFDEMTRNAHQVQKQTLKEILLKNQSAIYLQNCGLNGNATDPEEAFKSMVPLVTDVELEPYIKRMVDGDTSPILTGHPVPAISLSSGTSQGRPKFIPFTDELMENTLQLFRTAFAFRNRDFPIDDNGKALQFIFSSKQYISTGGVPVGTATTNVYRNPNFKAGMKSITSPSCSPDEVIFSPDVHQALYCHLLSGILFRDQVQYVFAVFAHGLVHAFRTFEQVWEEIVTDIKDGVLSNRITVPSVRTAMSKLLTPNPELAETIRTKCMSLSNWYGLIPALFPNAKYVYGIMTGSMEPYVPKLRHYAGDLPLVSHDYGSSEGWIAANVTPRLSPEEATFAVIPNLGYFEFLPVSETGEGEEKPVGLTQVKIGEEYEVVITNYAGLYRYRLGDVVKVIGFYNNTPQLKFICRRNLILSINIDKNTERDLQLSVESAAKRLSEEKIEVIDFSSYIDVSTDPGHYAIFWEISGETNEDVLQDCCNCLDRAFIDAGYVSSRKCKTIGALELRVVAKGTFRKIQEHFLGLGSSAGQFKMPRCVKPSNAKVLQILCENVVSSYFSTAF
notes: FIN219/JAR1, Arabidopsis, At2g46370, full length; also called full-length FIN219; source: E. coli, purified (Glutathione Sepharose 4B)
binding result: binds
